Measurements taken from patent US20190071490A1, “Preventing Post-Ictal Headaches” (Beth Israel Deaconess Medical Center, Inc., priority 2017, published 2019).
Residue numbers refer to the chain shown, from its start. Names may count otherwise.

T1: human α-CGRP (Homo sapiens, UniProt P06881)
T1 construct: 1-37 (WT); purchased GenScript Corporation or Global Peptide Services
T1 sequence (P06881 83-119 limits assumed): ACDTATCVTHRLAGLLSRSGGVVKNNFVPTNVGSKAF

T2: rat α-CGRP (Rattus norvegicus, UniProt P01256)
T2 construct: rat α (1-37); purchased GenScript Corporation or Global Peptide Services
T2 sequence (P01256 83-119 limits assumed): T1 sequence (P06881 83-119 limits assumed) with A1S, D3N, N25D, K35E

B1: M46: G1 variant; L1 R28N; L2 G50A L56T; H2 E54K A57N S58E H61F; HC-FW3 L99T A100V (antibody, V domains shown)
VH: EVQLVESGGGLVQPGGSLRLSCAASGFTFSNYWISWVRQAPGKGLEWVAEIRSKSDNEATFYAEAVKGRFTISRDNAKNSLYLQMNSLRAEDTAVYYCTVYFDYGLAIQNYWGQGTLVTVSS
VL: EIVLTQSPATLSLSPGERATLSCKASKNVTTYVSWYQQKPGQAPRLLIYAASNRYTGIPARFSGSGSGTDFTLTISSLEPEDFAVYYCSQSYNYPYTFGQGTKLEIK
B2: M47: G1 variant; L1 R28N; L2 G50A L56T; H2 E54K A57N S58G; HC-FW3 L99T A100V (antibody, V domains shown)
VH: B1 VH with E58G, F61H
VL: B1 VL
B3: M48: G1 variant; L1 R28N; L2 G50A L56T; H2 E54K A57N S58L; HC-FW3 L99T A100V (antibody, V domains shown)
VH: B1 VH with E58L, F61H
VL: B1 VL
B4: M49: G1 variant; L1 R28N; L2 G50A L56T; H2 E54K A57N S58Y H61F; HC-FW3 L99T A100V (antibody, V domains shown)
VH: B1 VH with E58Y
VL: B1 VL
B5: M50: G1 variant; L1 R28N; L2 G50A L56T; H2 E54K A57R; HC-FW3 L99T A100V (antibody, V domains shown)
VH: B1 VH with N57R, E58S, F61H
VL: B1 VL
B6: M51: G1 variant; L1 R28N; L2 L561; H2 E54K A57G; HC-FW3 L99T A100V (antibody, V domains shown)
VH: B1 VH with N57G, E58S, F61H
VL: B1 VL with A50G, T56I
B7: M52: G1 variant; L1 R28N; L2 L561; H2 E54K A57N S58A; HC-FW3 L99T A100V (antibody, V domains shown)
VH: B1 VH with E58A, F61H
VL: B1 VL with A50G, T56I
B8: M53: G1 variant; L1 R28N; L2 L561; H2 E54K A57N S58G; HC-FW3 L99T A100V (antibody, V domains shown)
VH: B1 VH with E58G, F61H
VL: B1 VL with A50G, T56I
B9: M54: G1 variant; L1 R28N T30A; L2 G50A; H2 E54K A57N S58P; HC-FW3 L99T A100V (antibody, V domains shown)
VH: B1 VH with E58P, F61H
VL: B1 VL with T30A, T56L
B10: M55: G1 variant; L1 R28N T30A; L2 L56S; H2 E54K A57N S58E E64D; HC-FW3 L99T A100V (antibody, V domains shown)
VH: B1 VH with F61H, E64D
VL: B1 VL with T30A, A50G, T56S
B11: M56: G1 variant; L1 R28N T30D; L2 L56S; H2 E54K A57N H61F; HC-FW3 L99T A100V (antibody, V domains shown)
VH: B1 VH with E58S
VL: B1 VL with T30D, A50G, T56S
B12: M57: G1 variant; L1 R28N T30D; L2 L56S; H2 E54K A57N S58E; HC-FW3 L99T A100V (antibody, V domains shown)
VH: B1 VH with F61H
VL: B1 VL with T30D, A50G, T56S
B13: M58: G1 variant; L1 R28N T30D; L2 L56S; H2 E54K A57N S58I H61F; HC-FW3 L99T A100V (antibody, V domains shown)
VH: B1 VH with E58I
VL: B1 VL with T30D, A50G, T56S
B14: M59: G1 variant; L1 R28N T30D; L2 L56S; H2 E54K A57N S58N H61F; HC-FW3 L99T A100V (antibody, V domains shown)
VH: B1 VH with E58N
VL: B1 VL with T30D, A50G, T56S
B15: M60: G1 variant; L1 R28N T30D; L2 L56S; H2 E54K A57N S58R H61F; HC-FW3 L99T A100V (antibody, V domains shown)
VH: B1 VH with E58R
VL: B1 VL with T30D, A50G, T56S
B16: M61: G1 variant; L1 R28N T30G; L2 A51H; H2 E54Q A57N H61F; HC-FW3 L99T A100V (antibody, V domains shown)
VH: B1 VH with K54Q, E58S
VL: B1 VL with T30G, A50G, A51H, T56L
B17: M62: G1 variant; L1 R28N T30G; L2 A51H L56T; H2 E54K A57N S58E; HC-FW3 L99T A100V (antibody, V domains shown)
VH: B1 VH with F61H
VL: B1 VL with T30G, A50G, A51H
B18: M63: G1 variant; L1 R28N T30G; L2 G50A; H2 E54K A57N S58T; HC-FW3 L99T A100V (antibody, V domains shown)
VH: B1 VH with E58T, F61H
VL: B1 VL with T30G, T56L
B19: M64: G1 variant; L1 R28N T30G; L2 G50A; H2 E54K A57N S58V; HC-FW3 L99T A100V (antibody, V domains shown)
VH: B1 VH with E58V, F61H
VL: B1 VL with T30G, T56L
B20: M25: G1 variant; L1 R28N; HC-FW3 L99T A100V (antibody, V domains shown)
VH: B1 VH with K54E, N57A, E58S, F61H
VL: B1 VL with A50G, T56L

What was measured:
human α-CGRP = target: T1, human α-CGRP; assay: Biacore SPR affinity of Fab fragments to N-biotinylated human α-CGRP on SA chip; format: binding; conditions: 37° C., screening mode except underlined values
Description: (§1) Affinity determination of the Fabs. Affinities of the anti-CGRP monoclonal antibodies were determined at either 25° C. or 37° C. using the BIACORE3000™ surface plasmon resonance (SPR) system (Biacore, INC, Piscataway N.J.) with the manufacture's own running buffer, HBS-EP (10 mM HEPES pH 7.4, 150 mM NaCl, 3 mM EDTA, 0.005% v/v polysorbate P20). Affinity was determined by capturing N-terminally biotinylated CGRP peptides (custom ordered from GenScript Corporation, New Jersey or Global Peptide Services, Colorado) via pre-immobilized streptavidin on SA chip and measuring binding kinetics of antibody Fab titrated across the CGRP surface. Biotinylated CGRP was diluted into HBS-EP and injected over the chip at a concentration of less than 0.001 mg/ml. Using variable flow time across the individual chip channels, two ranges of antigen density were achieved: <50 response units (RU) for detailed kinetic studies and about 800 RU for concentration studies and screening. […] After each binding cycle, surfaces were regenerated with 25 mM NaOH in 25% v/v ethanol, which was tolerated over hundreds of cycles. Kinetic association rate (kon) and dissociation rate (koff) were obtained simultaneously by fitting the data to a 1:1 Langmuir binding model (Karlsson et al. (1994). Methods Enzymology 6. 99-110) using the BIAevaluation program. Global equilibrium dissociation constants (KD) or “affinities” were calculated from the ratio KD=koff/kon.
(§2) Biacore assay for affinity determination. […] All Biacore assays were conducted in HBS-EP running buffer (10 mM HEPES pH 7.4, 150 mM NaCl, 3 mM EDTA, 0.005% v/v polysorbate P20). CGRP surfaces were prepared by diluting the N-biotinylated CGRP to a concentration of less than 0.001 mg/mL into HBS-EP buffer and injecting it across the SA sensor chip using variable contact times. Low capacity surfaces, corresponding to capture levels <50 response units (RU) were used for high-resolution kinetic studies, whereas high capacity surfaces (about 800 RU of captured CGRP) were used for concentration studies, screening, and solution affinity determinations. […] Samples were typically injected for 1 minute at 100 μL/min and dissociation times of at least 10 minutes were allowed. After each binding cycle, surfaces were regenerated with 25 mM NaOH in 25% v/v ethanol, which was tolerated over hundreds of cycles. An entire titration series (typically generated in duplicate) was fit globally to a 1:1 Langmuir binding model using the BIAevaluation program. This returned a unique pair of association and dissociation kinetic rate constants (respectively, kon and koff) for each binding interaction, whose ratio gave the equilibrium dissociation constant (KD=koff/kon).
(§3) High-resolution analysis of binding interactions with extremely slow off rates. […] The protocol described above was used with the following modifications. The association rate constant (kon) was determined by injecting a 2-fold titration series (in duplicate) spanning 550 nM-1 nM for 30 seconds at 100 μL/min and allowing only a 30 second dissociation phase. The dissociation rate constant (koff) was determined by injecting three concentrations (high, medium, and low) of the same titration series in duplicate for 30 seconds and allowing a 2-hour dissociation phase. The affinity (KD) of each interaction was obtained by combining the kon and koff values obtained in both types of experiments, as shown in Table 4.

rat α-CGRP = target: T2, rat α-CGRP; assay: Biacore SPR affinity of Fab fragments to N-biotinylated rat α-CGRP on SA chip; format: binding; conditions: 37° C., screening mode except underlined values
Description: as §1, §2, §3

| Molecule | α-human koff (human α-CGRP) | α-rat koff (rat α-CGRP) | α-rat koff (1/s) (rat α-CGRP) |
| --- | --- | --- | --- |
| B1 | 0.000539 s⁻¹ | 0.00294 s⁻¹ | – |
| B2 | 0.000332 s⁻¹ | 0.00823 s⁻¹ | – |
| B3 | 0.000842 s⁻¹ | 0.0343 s⁻¹ | – |
| B4 | 0.000595 s⁻¹ | 0.0148 s⁻¹ | – |
| B5 | 0.000406 s⁻¹ | 0.0053 s⁻¹ | – |
| B6 | 0.000131 s⁻¹ | 0.00118 s⁻¹ | – |
| B7 | 0.000281 s⁻¹ | 0.00229 s⁻¹ | – |
| B8 | 0.000374 s⁻¹ | 0.00191 s⁻¹ | – |
| B9 | 0.00179 s⁻¹ | 0.00216 s⁻¹ | – |
| B10 | 0.000478 s⁻¹ | 0.00585 s⁻¹ | – |
| B11 | 0.000479 s⁻¹ | 0.00935 s⁻¹ | – |
| B12 | 0.000322 s⁻¹ | 0.0104 s⁻¹ | – |
| B13 | 0.00195 s⁻¹ | – | No binding |
| B14 | 0.000524 s⁻¹ | 0.0123 s⁻¹ | – |
| B15 | 0.000911 s⁻¹ | 0.0272 s⁻¹ | – |
| B16 | 0.000459 s⁻¹ | 0.00521 s⁻¹ | – |
| B17 | 0.000557 s⁻¹ | 0.00575 s⁻¹ | – |
| B18 | 0.0015 s⁻¹ | 0.00265 s⁻¹ | – |
| B19 | 0.00132 s⁻¹ | 0.0234 s⁻¹ | – |
| B20 | – | 0.0014 s⁻¹ | – |
